Drawing on patent publication US20160002357A1, this text covers Kd, koff and kon for 9 molecules.

In experiment [1] the target is human soluble CD3 (human) (UniProt P07766). Nature of the experiment: SPR Biacore 3000, antigen immobilised.
Experiment [2] shares this target. Briefly: SPR Biacore.

human soluble CD3 (human), sequence (P07766 23-126, chain 1 of 2): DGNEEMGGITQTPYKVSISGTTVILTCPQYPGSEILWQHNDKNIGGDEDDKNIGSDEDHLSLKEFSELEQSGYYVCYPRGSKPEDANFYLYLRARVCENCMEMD
human soluble CD3 (human), sequence (P04234 22-105, chain 2 of 2, further chain): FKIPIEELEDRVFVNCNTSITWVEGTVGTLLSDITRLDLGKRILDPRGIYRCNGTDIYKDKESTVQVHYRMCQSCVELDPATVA

B1: 20 EK-DART (bispecific antibody)
chain 1: AIQMTQSPSSLSASVGDRVTITCRASQSIGKYLNWYQQIPGKAPKLLIYTASTLQTGVPSRFSGSGSGTDFTLTIVSLQPEDFATYYCQQSFNTPRTFGQGTKVEIKGGGSGGGGEVQLVESGGGLVQPGGSLRLSCAASGFTFNTYAMNWVRQAPGKGLEWVARIRSKYNNYATYYADSVKDRFTISRDDSKNSLYLQMNSLKTEDTAVYYCVRHGNFGNSYVSWFAYWGQGTLVTVSSGGCGGGKVAALKEKVAALKEKVAALKEKVAALKE
chain 2: QAVVTQEPSLTVSPGGTVTLTCRSSTGAVTTSNYANWVQQKPGQAPRGLIGGTNKRAPWTPARFSGSLLGGKAALTITGAQAEDEADYYCALWYSNLWVFGGGTKLTVLGGGGSGGGGEVQLVQSGAEVKKPGASVKVSCKASGYTFTGYYMHWVRQAPGQGLEWMGRINPNSGGTNYAQKFQGRVTMTRDTSISTAYMELSRLRSDDTAVYYCAKGSGSGAFDIWGQGTMVTVSSGGCGGGEVAALEKEVAALEKEVAALEKEVAALEK
In experiment [1], B1 returned a Kd of 5.19 nM, a koff of 0.00609 s⁻¹ and an on-rate (kon) of 979000 M⁻¹ s⁻¹.

B2: 154 EK-DART (bispecific antibody)
chain 1: QSVLTQPPSVSAAPGQKVTISCSGSSSNIGNNYVSWYQQLPGTAPKLLIYDNNKRPSGIPDRFSGSKSGTSATLGITGLQTGDEADYYCGTWDSSLSSYVFGTGTKVTVLGGGSGGGGEVQLVESGGGLVQPGGSLRLSCAASGFTFNTYAMNWVRQAPGKGLEWVARIRSKYNNYATYYADSVKDRFTISRDDSKNSLYLQMNSLKTEDTAVYYCVRHGNFGNSYVSWFAYWGQGTLVTVSSGGCGGGKVAALKEKVAALKEKVAALKEKVAALKE
chain 2: QAVVTQEPSLTVSPGGTVTLTCRSSTGAVTTSNYANWVQQKPGQAPRGLIGGTNKRAPWTPARFSGSLLGGKAALTITGAQAEDEADYYCALWYSNLWVFGGGTKLTVLGGGGSGGGGEVQLVQSGAEVKKPGASVKVSCKASGYTFTSYGISWVRQAPGQGLEWMGWISAYNGNTNYAQKLQGRVTMTTDTSTSTAYMELRSLRSDDTAVYYCATIDTATAFDIWGQGTMVTVSSGGCGGGEVAALEKEVAALEKEVAALEKEVAALEK
In the case of B2, in experiment [2], the Kd is 17.1 nM, the koff worked out at 0.00768 s⁻¹ and the kon was 456000 M⁻¹ s⁻¹.

B3: 178 EK-DART (bispecific antibody)
chain 1: QSVLTQPPSVSAAPGQKVTISCSGSSSNIGNNYVSWYQQLPGTAPKLLIYDNNKRPSGIPDRFSGSKSGTSATLGITGLQTGDEADYYCGTWDSSLSAVVFGGGTKLTVLGGGSGGGGEVQLVESGGGLVQPGGSLRLSCAASGFTFNTYAMNWVRQAPGKGLEWVARIRSKYNNYATYYADSVKDRFTISRDDSKNSLYLQMNSLKTEDTAVYYCVRHGNFGNSYVSWFAYWGQGTLVTVSSGGCGGGKVAALKEKVAALKEKVAALKEKVAALKE
chain 2: QAVVTQEPSLTVSPGGTVTLTCRSSTGAVTTSNYANWVQQKPGQAPRGLIGGTNKRAPWTPARFSGSLLGGKAALTITGAQAEDEADYYCALWYSNLWVFGGGTKLTVLGGGGSGGGGEVQLVQSGAEVKKPGASVKVSCKASGYTFTSYGISWVRQAPGQGLEWMGWISAYNGNTNYAQKLQGRVTMTTDTSTSTAYMELRSLRSDDTAVYYCATIDTANAFDIWGQGTMVTVSSGGCGGGEVAALEKEVAALEKEVAALEKEVAALEK
As for B3, in experiment [2], the Kd is 23.1 nM, the koff was 0.00526 s⁻¹ and the kon turned out to be 230000 M⁻¹ s⁻¹.

B4: 34 EK-DART (bispecific antibody)
chain 1: QSVVTQPPSVSAAPGQKVTISCSGSSSNIGNNYVSWYQQLPGTAPKLLIYDNNKRPSGIPDRFSGSKSGTSATLGITGLQTGDEADYYCGTWDSSLSAWVFGGGTKLTVLGGGSGGGGEVQLVESGGGLVQPGGSLRLSCAASGFTFNTYAMNWVRQAPGKGLEWVARIRSKYNNYATYYADSVKDRFTISRDDSKNSLYLQMNSLKTEDTAVYYCVRHGNFGNSYVSWFAYWGQGTLVTVSSGGCGGGKVAALKEKVAALKEKVAALKEKVAALKE
chain 2: QAVVTQEPSLTVSPGGTVTLTCRSSTGAVTTSNYANWVQQKPGQAPRGLIGGTNKRAPWTPARFSGSLLGGKAALTITGAQAEDEADYYCALWYSNLWVFGGGTKLTVLGGGGSGGGGEVQLVQSGAEVKKPGASVKVSCKASGYTFTSYGISWVRQAPGQGLEWMGWISAYNGNTNYAQKLQGRVTMTTDTSTSTAYMELRSLRSDDTAVYYCATIDTASAFDIWGQGTMVTVSSGGCGGGEVAALEKEVAALEKEVAALEKEVAALEK
As to B4, in experiment [1], the Kd was 22.8 nM, the koff was found to be 0.00445 s⁻¹ and the kon was found to be 195000 M⁻¹ s⁻¹.

B5: 180 EK-DART (bispecific antibody)
chain 1: QSVVTQPPSVSAAPGQKVTISCSGSSSNIGNNYVSWYQQLPGTAPKLLIYDNNKRPSGIPDRFSGSKSGTSATLGITGLQTGDEADYYCGTWDSSLSAYVFGTGTKVTVLGGGSGGGGEVQLVESGGGLVQPGGSLRLSCAASGFTFNTYAMNWVRQAPGKGLEWVARIRSKYNNYATYYADSVKDRFTISRDDSKNSLYLQMNSLKTEDTAVYYCVRHGNFGNSYVSWFAYWGQGTLVTVSSGGCGGGKVAALKEKVAALKEKVAALKEKVAALKE
chain 2: QAVVTQEPSLTVSPGGTVTLTCRSSTGAVTTSNYANWVQQKPGQAPRGLIGGTNKRAPWTPARFSGSLLGGKAALTITGAQAEDEADYYCALWYSNLWVFGGGTKLTVLGGGGSGGGGEVQLVQSGAEVKKPGASVKVSCKASGYTFTSYGISWVRQAPGQGLEWMGWISAYNGNTNYAQKLQGRVTMTTDTSTSTAYMELRSLRSDDTAVYYCATIDTANAFDIWGQGTMVTVSSGGCGGGEVAALEKEVAALEKEVAALEKEVAALEK
As to B5, in experiment [2], the Kd came to 15.9 nM, the koff came to 0.0111 s⁻¹ and the kon turned out to be 706000 M⁻¹ s⁻¹.

B6: 33 EK-DART (bispecific antibody)
chain 1: QSVLTQPPSVSAAPGQKVTISCSGSSSNIGNNYVSWYQQLPGTAPKLLIYDNNKRPSGIPDRFSGSKSGTSATLGITGLQTGDEADYYCGTWDSSLSAYVFGTGTKVTVLGGGSGGGGEVQLVESGGGLVQPGGSLRLSCAASGFTFNTYAMNWVRQAPGKGLEWVARIRSKYNNYATYYADSVKDRFTISRDDSKNSLYLQMNSLKTEDTAVYYCVRHGNFGNSYVSWFAYWGQGTLVTVSSGGCGGGKVAALKEKVAALKEKVAALKEKVAALKE
chain 2: QAVVTQEPSLTVSPGGTVTLTCRSSTGAVTTSNYANWVQQKPGQAPRGLIGGTNKRAPWTPARFSGSLLGGKAALTITGAQAEDEADYYCALWYSNLWVFGGGTKLTVLGGGGSGGGGQMQLVQSGAEVKKPGASVKVSCKASGYTFTSYGISWVRQAPGQGLEWMGWISAYNGNTNYAQKLQGRVTMTTDTSTSTAYMELRSLRSDDTAVYYCALIGSGVAFDIWGQGTMVTVSSGGCGGGEVAALEKEVAALEKEVAALEKEVAALEK
Turning to B6, in experiment [1], the Kd was found to be 17.7 nM, the koff worked out at 0.00403 s⁻¹ and the kon amounted to 228000 M⁻¹ s⁻¹.

B7: 165 EK-DART (bispecific antibody)
chain 1: QSVLTQPPSVSAAPGQKVTISCSGSSSNIGNNYVSWYQQLPGTAPKLLIYDNNKRPSGIPDRFSGSKSGTSATLGITGLQAGDEADYYCGTWDSSLSAYVFGTGTKVTVLGGGSGGGGEVQLVESGGGLVQPGGSLRLSCAASGFTFNTYAMNWVRQAPGKGLEWVARIRSKYNNYATYYADSVKDRFTISRDDSKNSLYLQMNSLKTEDTAVYYCVRHGNFGNSYVSWFAYWGQGTLVTVSSGGCGGGKVAALKEKVAALKEKVAALKEKVAALKE
chain 2: QAVVTQEPSLTVSPGGTVTLTCRSSTGAVTTSNYANWVQQKPGQAPRGLIGGTNKRAPWTPARFSGSLLGGKAALTITGAQAEDEADYYCALWYSNLWVFGGGTKLTVLGGGGSGGGGEVQLVQSGAEVKKPGASVKVSCKASGYTFTSYGISWVRQAPGQGLEWMGWISAYNGNTNYAQKLQGRVTMTTDTSTSTAYMELRSLRSDDTAVYYCATIDTANAFDIWGQGTMVTVSSGGCGGGEVAALEKEVAALEKEVAALEKEVAALEK
On to B7, for which, in experiment [2], the Kd was found to be 14.9 nM, the koff was found to be 0.00417 s⁻¹ and the kon came out at 278000 M⁻¹ s⁻¹.

B8: 177 EK-DART (bispecific antibody)
chain 1: QSVLTQPPSVSAAPGQKVTISCSGSSSNIGNNYVSWYQQLPGTAPKLLIYDNNKRPSGIPDRFSGSKSGTSATLGITGLQTGDEADYYCGTWDSSLSAYVFGTGTKVTVLGGGSGGGGEVQLVESGGGLVQPGGSLRLSCAASGFTFNTYAMNWVRQAPGKGLEWVARIRSKYNNYATYYADSVKDRFTISRDDSKNSLYLQMNSLKTEDTAVYYCVRHGNFGNSYVSWFAYWGQGTLVTVSSGGCGGGKVAALKEKVAALKEKVAALKEKVAALKE
chain 2: QAVVTQEPSLTVSPGGTVTLTCRSSTGAVTTSNYANWVQQKPGQAPRGLIGGTNKRAPWTPARFSGSLLGGKAALTITGAQAEDEADYYCALWYSNLWVFGGGTKLTVLGGGGSGGGGEVQLVQSGAEVKKPGASVKVSCKASGYTFTSYGISWVRQAPGQGLEWMGWISAYNGNTNYAQKLQGRVTMTTDTSTSTAYMELRSLRSDDTAVYYCATIDTANAFDIWGQGTMVTVSSGGCGGGEVAALEKEVAALEKEVAALEKEVAALEK
Turning to B8, in experiment [2], the Kd is 19.9 nM, the koff was found to be 0.00443 s⁻¹ and the kon is 253000 M⁻¹ s⁻¹.

B9: 179 EK-DART (bispecific antibody)
chain 1: QSVLTQPPSVSAAPGQKVTISCSGSRSNIGNNYVSWYQQLPGTAPKLLIYDSNKRPSGIPDRFSGSKSGTSATLGITGLQTGDEADYYCGTWDSSLSSWVFGGGTKLTVLGGGSGGGGEVQLVESGGGLVQPGGSLRLSCAASGFTFNTYAMNWVRQAPGKGLEWVARIRSKYNNYATYYADSVKDRFTISRDDSKNSLYLQMNSLKTEDTAVYYCVRHGNFGNSYVSWFAYWGQGTLVTVSSGGCGGGKVAALKEKVAALKEKVAALKEKVAALKE
chain 2: QAVVTQEPSLTVSPGGTVTLTCRSSTGAVTTSNYANWVQQKPGQAPRGLIGGTNKRAPWTPARFSGSLLGGKAALTITGAQAEDEADYYCALWYSNLWVFGGGTKLTVLGGGGSGGGGEVQLVQSGAEVKKPGASVKVSCKASGYTFTSYGISWVRQAPGQGLEWMGWISAYNGNTNYAQKLQGRVTMTTDTSTSTAYMELRSLRSDDTAVYYCATIDTANAFDIWGQGTMVTVSSGGCGGGEVAALEKEVAALEKEVAALEKEVAALEK
In experiment [2], B9 yielded a Kd of 25.8 nM, a koff of 0.00641 s⁻¹ and a kon of 306000 M⁻¹ s⁻¹.
